Results published in article doi:10.1101/2023.07.25.550451 (bioRxiv, 2023).
Read-outs that look alike come from different tables or passages of the source. * marks the point of attachment. Biotin = O=C1N[C@H]2[C@H](CS[C@H]2CCCCC(=O)*)N1

Columns and labels:
[1] = target: T1, p97, wild-type, full-length (recombinant) (human, UniProt P55072 1-806); assay: pull-down
[2] = target: T1, p97, wild-type, full-length …; assay: pull-down; remark: listed apart in the source

T1 sequence (P55072 whole entry): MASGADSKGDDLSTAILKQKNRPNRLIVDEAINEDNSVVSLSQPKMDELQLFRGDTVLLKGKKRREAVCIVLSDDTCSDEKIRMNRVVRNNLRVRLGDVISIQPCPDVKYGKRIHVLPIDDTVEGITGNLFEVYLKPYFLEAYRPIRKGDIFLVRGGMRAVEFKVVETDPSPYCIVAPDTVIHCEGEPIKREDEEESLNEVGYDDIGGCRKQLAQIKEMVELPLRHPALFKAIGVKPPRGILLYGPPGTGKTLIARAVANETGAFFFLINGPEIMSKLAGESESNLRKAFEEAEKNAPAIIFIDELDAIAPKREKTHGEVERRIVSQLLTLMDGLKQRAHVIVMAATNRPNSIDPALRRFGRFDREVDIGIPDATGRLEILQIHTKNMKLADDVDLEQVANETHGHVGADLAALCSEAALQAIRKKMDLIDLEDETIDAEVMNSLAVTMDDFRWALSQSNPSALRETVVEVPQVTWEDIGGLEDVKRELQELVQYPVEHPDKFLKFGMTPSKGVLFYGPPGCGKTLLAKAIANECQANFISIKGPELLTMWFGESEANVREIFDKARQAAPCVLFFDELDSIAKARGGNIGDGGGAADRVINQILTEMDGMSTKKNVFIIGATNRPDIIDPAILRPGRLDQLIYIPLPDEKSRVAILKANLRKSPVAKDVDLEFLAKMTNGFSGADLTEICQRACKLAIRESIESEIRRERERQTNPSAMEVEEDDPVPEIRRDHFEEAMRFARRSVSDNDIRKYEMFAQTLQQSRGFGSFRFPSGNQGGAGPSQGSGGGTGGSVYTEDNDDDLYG

Row | Binder | binding result [1] | binding result [2]
1 | GST-FAM104A isoform 2 (natural protein) not shown | binds | 
2 | GST-FAM104A isoform 1 (natural protein) not shown | binds | 
3 | Biotin-CQGLYFHINQTLREAHFHSLQHRG-OH (SMILES CC[C@H](C)[C@H](NC(=O)[C@H](Cc1c[nH]cn1)NC(=O)[C@H](Cc1ccccc1)NC(=O)[C@H](Cc1ccc(O)cc1)NC(=O)[C@H](CC(C)C)NC(=O)CNC(=O)[C@H](CCC(N)=O)NC(=O)[C@H](CS)NC(=O)CCCC[C@@H]1SC[C@@H]2NC(=O)N[C@@H]21)C(=O)N[C@@H](CC(N)=O)C(=O)N[C@@H](CCC(N)=O)C(=O)N[C@H](C(=O)N[C@@H](CC(C)C)C(=O)N[C@@H](CCCNC(=N)N)C(=O)N[C@@H](CCC(=O)O)C(=O)N[C@@H](C)C(=O)N[C@@H](Cc1c[nH]cn1)C(=O)N[C@@H](Cc1ccccc1)C(=O)N[C@@H](Cc1c[nH]cn1)C(=O)N[C@@H](CO)C(=O)N[C@@H](CC(C)C)C(=O)N[C@@H](CCC(N)=O)C(=O)N[C@@H](Cc1c[nH]cn1)C(=O)N[C@@H](CCCNC(=N)N)C(=O)NCC(=O)O)[C@@H](C)O) |  | binds
